Sequences and labels used below:
T1: human CRH receptor type 2 (human, UniProt Q13324 1-411)
T1 sequence (looked up): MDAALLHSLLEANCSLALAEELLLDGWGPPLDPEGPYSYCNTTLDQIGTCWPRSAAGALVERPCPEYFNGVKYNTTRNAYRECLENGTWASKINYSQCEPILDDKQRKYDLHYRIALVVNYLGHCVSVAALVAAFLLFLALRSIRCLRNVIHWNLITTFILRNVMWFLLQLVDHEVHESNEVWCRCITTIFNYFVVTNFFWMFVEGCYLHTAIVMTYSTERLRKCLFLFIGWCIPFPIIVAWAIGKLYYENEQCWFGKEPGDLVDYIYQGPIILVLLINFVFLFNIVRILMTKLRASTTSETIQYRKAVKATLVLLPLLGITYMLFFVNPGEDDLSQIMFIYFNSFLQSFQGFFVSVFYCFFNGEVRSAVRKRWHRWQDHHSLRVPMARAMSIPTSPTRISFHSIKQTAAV

B1: Cys-variant of stresscopin peptide with N-Ethylsuccinimide (NES) reactive group, SEQ ID NO: 54 (peptide)
peptide: TKFTLSLDVPTNIMNC(Succinimide(1-Et,3-yl))LFNIAKAKNLRAQAAANAHLMAQI-NH2
modifications: N-terminus assumed
SMILES: CC[C@H](C)[C@H](NC(=O)[C@H](CCC(N)=O)NC(=O)[C@H](C)NC(=O)[C@H](CCSC)NC(=O)[C@H](CC(C)C)NC(=O)[C@H](Cc1c[nH]cn1)NC(=O)[C@H](C)NC(=O)[C@H](CC(N)=O)NC(=O)[C@H](C)NC(=O)[C@H](C)NC(=O)[C@H](C)NC(=O)[C@H](CCC(N)=O)NC(=O)[C@H](C)NC(=O)[C@H](CCCNC(=N)N)NC(=O)[C@H](CC(C)C)NC(=O)[C@H](CC(N)=O)NC(=O)[C@H](CCCCN)NC(=O)[C@H](C)NC(=O)[C@H](CCCCN)NC(=O)[C@H](C)NC(=O)[C@@H](NC(=O)[C@H](CC(N)=O)NC(=O)[C@H](Cc1ccccc1)NC(=O)[C@H](CC(C)C)NC(=O)[C@H](CSC1CC(=O)N(CC)C1=O)NC(=O)[C@H](CC(N)=O)NC(=O)[C@H](CCSC)NC(=O)[C@@H](NC(=O)[C@H](CC(N)=O)NC(=O)[C@@H](NC(=O)[C@@H]1CCCN1C(=O)[C@@H](NC(=O)[C@H](CC(=O)O)NC(=O)[C@H](CC(C)C)NC(=O)[C@H](CO)NC(=O)[C@H](CC(C)C)NC(=O)[C@@H](NC(=O)[C@H](Cc1ccccc1)NC(=O)[C@H](CCCCN)NC(=O)[C@@H](N)[C@@H](C)O)[C@@H](C)O)C(C)C)[C@@H](C)O)[C@@H](C)CC)[C@@H](C)CC)C(N)=O
B2: Cys-variant of stresscopin peptide with N-Ethylsuccinimide (NES) reactive group, SEQ ID NO: 52 (peptide)
peptide: TKFTLSLDVPTNIMNLLFC(Succinimide(1-Et,3-yl))IAKAKNLRAQAAANAHLMAQI-NH2
modifications: N-terminus assumed
SMILES: CC[C@H](C)[C@H](NC(=O)[C@H](CCC(N)=O)NC(=O)[C@H](C)NC(=O)[C@H](CCSC)NC(=O)[C@H](CC(C)C)NC(=O)[C@H](Cc1c[nH]cn1)NC(=O)[C@H](C)NC(=O)[C@H](CC(N)=O)NC(=O)[C@H](C)NC(=O)[C@H](C)NC(=O)[C@H](C)NC(=O)[C@H](CCC(N)=O)NC(=O)[C@H](C)NC(=O)[C@H](CCCNC(=N)N)NC(=O)[C@H](CC(C)C)NC(=O)[C@H](CC(N)=O)NC(=O)[C@H](CCCCN)NC(=O)[C@H](C)NC(=O)[C@H](CCCCN)NC(=O)[C@H](C)NC(=O)[C@@H](NC(=O)[C@H](CSC1CC(=O)N(CC)C1=O)NC(=O)[C@H](Cc1ccccc1)NC(=O)[C@H](CC(C)C)NC(=O)[C@H](CC(C)C)NC(=O)[C@H](CC(N)=O)NC(=O)[C@H](CCSC)NC(=O)[C@@H](NC(=O)[C@H](CC(N)=O)NC(=O)[C@@H](NC(=O)[C@@H]1CCCN1C(=O)[C@@H](NC(=O)[C@H](CC(=O)O)NC(=O)[C@H](CC(C)C)NC(=O)[C@H](CO)NC(=O)[C@H](CC(C)C)NC(=O)[C@@H](NC(=O)[C@H](Cc1ccccc1)NC(=O)[C@H](CCCCN)NC(=O)[C@@H](N)[C@@H](C)O)[C@@H](C)O)C(C)C)[C@@H](C)O)[C@@H](C)CC)[C@@H](C)CC)C(N)=O
B3: Cys-variant of stresscopin peptide with N-Ethylsuccinimide (NES) reactive group, SEQ ID NO: 53 (peptide)
peptide: TKFTLSLDVPTNIMNLC(Succinimide(1-Et,3-yl))FNIAKAKNLRAQAAANAHLMAQI-NH2
modifications: N-terminus assumed
SMILES: CC[C@H](C)[C@H](NC(=O)[C@H](CCC(N)=O)NC(=O)[C@H](C)NC(=O)[C@H](CCSC)NC(=O)[C@H](CC(C)C)NC(=O)[C@H](Cc1c[nH]cn1)NC(=O)[C@H](C)NC(=O)[C@H](CC(N)=O)NC(=O)[C@H](C)NC(=O)[C@H](C)NC(=O)[C@H](C)NC(=O)[C@H](CCC(N)=O)NC(=O)[C@H](C)NC(=O)[C@H](CCCNC(=N)N)NC(=O)[C@H](CC(C)C)NC(=O)[C@H](CC(N)=O)NC(=O)[C@H](CCCCN)NC(=O)[C@H](C)NC(=O)[C@H](CCCCN)NC(=O)[C@H](C)NC(=O)[C@@H](NC(=O)[C@H](CC(N)=O)NC(=O)[C@H](Cc1ccccc1)NC(=O)[C@H](CSC1CC(=O)N(CC)C1=O)NC(=O)[C@H](CC(C)C)NC(=O)[C@H](CC(N)=O)NC(=O)[C@H](CCSC)NC(=O)[C@@H](NC(=O)[C@H](CC(N)=O)NC(=O)[C@@H](NC(=O)[C@@H]1CCCN1C(=O)[C@@H](NC(=O)[C@H](CC(=O)O)NC(=O)[C@H](CC(C)C)NC(=O)[C@H](CO)NC(=O)[C@H](CC(C)C)NC(=O)[C@@H](NC(=O)[C@H](Cc1ccccc1)NC(=O)[C@H](CCCCN)NC(=O)[C@@H](N)[C@@H](C)O)[C@@H](C)O)C(C)C)[C@@H](C)O)[C@@H](C)CC)[C@@H](C)CC)C(N)=O
B4: Cys-variant of stresscopin peptide with N-Ethylsuccinimide (NES) reactive group, SEQ ID NO: 51 (peptide)
peptide: TKFTLSLDVPTNIMNLLFNC(Succinimide(1-Et,3-yl))AKAKNLRAQAAANAHLMAQI-NH2
modifications: N-terminus assumed
SMILES: CC[C@H](C)[C@H](NC(=O)[C@H](CCC(N)=O)NC(=O)[C@H](C)NC(=O)[C@H](CCSC)NC(=O)[C@H](CC(C)C)NC(=O)[C@H](Cc1c[nH]cn1)NC(=O)[C@H](C)NC(=O)[C@H](CC(N)=O)NC(=O)[C@H](C)NC(=O)[C@H](C)NC(=O)[C@H](C)NC(=O)[C@H](CCC(N)=O)NC(=O)[C@H](C)NC(=O)[C@H](CCCNC(=N)N)NC(=O)[C@H](CC(C)C)NC(=O)[C@H](CC(N)=O)NC(=O)[C@H](CCCCN)NC(=O)[C@H](C)NC(=O)[C@H](CCCCN)NC(=O)[C@H](C)NC(=O)[C@H](CSC1CC(=O)N(CC)C1=O)NC(=O)[C@H](CC(N)=O)NC(=O)[C@H](Cc1ccccc1)NC(=O)[C@H](CC(C)C)NC(=O)[C@H](CC(C)C)NC(=O)[C@H](CC(N)=O)NC(=O)[C@H](CCSC)NC(=O)[C@@H](NC(=O)[C@H](CC(N)=O)NC(=O)[C@@H](NC(=O)[C@@H]1CCCN1C(=O)[C@@H](NC(=O)[C@H](CC(=O)O)NC(=O)[C@H](CC(C)C)NC(=O)[C@H](CO)NC(=O)[C@H](CC(C)C)NC(=O)[C@@H](NC(=O)[C@H](Cc1ccccc1)NC(=O)[C@H](CCCCN)NC(=O)[C@@H](N)[C@@H](C)O)[C@@H](C)O)C(C)C)[C@@H](C)O)[C@@H](C)CC)C(N)=O

No end group written: not given here. *: point of attachment. Succinimide(1-Et,3-yl) = CCN1C(=O)CC(*)C1=O

The target in the assay is T1, human CRH receptor type 2. In words: cell-based or functional assay.
For TKFCLSLDVPTNIMNLLFNIAKAKNLRAQAAANAHLMAQI-NH2 [Cys-variant CRHR2 peptide agonist, SEQ ID NO: 5], the “Log DR against h-SCP, cAMP” value turned out to be 0.76 log10 ratio and the “pA50, cAMP” value is 8.93 -log M.

TCFTLSLDVPTNIMNLLFNIAKAKNLRAQAAANAHLMAQI-NH2 [Cys-variant CRHR2 peptide agonist, SEQ ID NO: 3]: the “Log DR against h-SCP, cAMP” value worked out at 0.72 log10 ratio and the “pA50, cAMP” value was 8.97 -log M.

With TKFTCSLDVPTNIMNLLFNIAKAKNLRAQAAANAHLMAQI-NH2 [Cys-variant CRHR2 peptide agonist, SEQ ID NO: 6], the “Log DR against h-SCP, cAMP” value was 0.61 log10 ratio and the “pA50, cAMP” value was 9.07 -log M.

Regarding B1, the “Log DR against h-SCP, cAMP” value was -0.08 log10 ratio and the “pA50, cAMP” value was 9.55 -log M.

As to B2, the “Log DR against h-SCP, cAMP” value was 0.05 log10 ratio and the “pA50, cAMP” value is 9.42 -log M.

On to CKFTLSLDVPTNIMNLLFNIAKAKNLRAQAAANAHLMAQI (NES-PEG (about 20 kDa) on Cys 1; C-terminal amide) [Pegylated Cys-variant CRHR2 peptide agonist (NES linker, PEG about 20 kDa), SEQ ID NO: 55], for which the “Log DR against h-SCP, cAMP” value is about 1.61 log10 ratio and the “pA50, cAMP” value was ~7.93 -log M.

As for TKFTLSCDVPTNIMNLLFNIAKAKNLRAQAAANAHLMAQI (NES-PEG (about 20 kDa) on Cys 7; C-terminal amide) [Pegylated Cys-variant CRHR2 peptide agonist (NES linker, PEG about 20 kDa), SEQ ID NO: 61], the “Log DR against h-SCP, cAMP” value is over 3.32 log10 ratio and the “pA50, cAMP” value was ~6.22 -log M.

As to TCFTLSLDVPTNIMNLLFNIAKAKNLRAQAAANAHLMAQI (NES-PEG (about 20 kDa) on Cys 2; C-terminal amide) [Pegylated Cys-variant CRHR2 peptide agonist (NES linker, PEG about 20 kDa), SEQ ID NO: 56], the “Log DR against h-SCP, cAMP” value is about 2.34 log10 ratio and the “pA50, cAMP” value was ~7.2 -log M.

With TKFCLSLDVPTNIMNLLFNIAKAKNLRAQAAANAHLMAQI (NES-PEG (about 20 kDa) on Cys 4; C-terminal amide) [Pegylated Cys-variant CRHR2 peptide agonist (NES linker, PEG about 20 kDa), SEQ ID NO: 58], the “Log DR against h-SCP, cAMP” value is about 2.4 log10 ratio and the “pA50, cAMP” value is ~7.14 -log M.

As for TKFTCSLDVPTNIMNLLFNIAKAKNLRAQAAANAHLMAQI (NES-PEG (about 20 kDa) on Cys 5; C-terminal amide) [Pegylated Cys-variant CRHR2 peptide agonist (NES linker, PEG about 20 kDa), SEQ ID NO: 59], the “Log DR against h-SCP, cAMP” value was about 2.32 log10 ratio and the “pA50, cAMP” value was ~7.22 -log M.

Take TKCTLSLDVPTNIMNLLFNIAKAKNLRAQAAANAHLMAQI (NES-PEG (about 20 kDa) on Cys 3; C-terminal amide) [Pegylated Cys-variant CRHR2 peptide agonist (NES linker, PEG about 20 kDa), SEQ ID NO: 57]: the “Log DR against h-SCP, cAMP” value is about 1.9 log10 ratio and the “pA50, cAMP” value was ~7.64 -log M.

TKFTLCLDVPTNIMNLLFNIAKAKNLRAQAAANAHLMAQI (NES-PEG (about 20 kDa) on Cys 6; C-terminal amide) [Pegylated Cys-variant CRHR2 peptide agonist (NES linker, PEG about 20 kDa), SEQ ID NO: 60]: the “Log DR against h-SCP, cAMP” value was over 3.22 log10 ratio and the “pA50, cAMP” value was ~6.32 -log M.

With B3, the “Log DR against h-SCP, cAMP” value is about 2.22 log10 ratio and the “pA50, cAMP” value is ~7.25 -log M.

For TKFTLSCDVPTNIMNLLFNIAKAKNLRAQAAANAHLMAQI-NH2 [Cys-variant CRHR2 peptide agonist, SEQ ID NO: 8], the “Log DR against h-SCP, cAMP” value came out at 2.86 log10 ratio and the “pA50, cAMP” value is ~6.82 -log M.

Turning to TKFTLCLDVPTNIMNLLFNIAKAKNLRAQAAANAHLMAQI-NH2 [Cys-variant CRHR2 peptide agonist, SEQ ID NO: 7], the “Log DR against h-SCP, cAMP” value turned out to be 2.08 log10 ratio and the “pA50, cAMP” value was 7.6 -log M.

Regarding TKFTLSLCVPTNIMNLLFNIAKAKNLRAQAAANAHLMAQI-NH2 [Cys-variant CRHR2 peptide agonist, SEQ ID NO: 9], the “Log DR against h-SCP, cAMP” value worked out at 1.89 log10 ratio and the “pA50, cAMP” value was 7.8 -log M.

Regarding CKFTLSLDVPTNIMNLLFNIAKAKNLRAQAAANAHLMAQI-NH2 [Cys-variant CRHR2 peptide agonist, SEQ ID NO: 2], the “Log DR against h-SCP, cAMP” value stood at 0.72 log10 ratio and the “pA50, cAMP” value was 8.97 -log M.

Consider TKCTLSLDVPTNIMNLLFNIAKAKNLRAQAAANAHLMAQI-NH2 [Cys-variant CRHR2 peptide agonist, SEQ ID NO: 4], for which the “Log DR against h-SCP, cAMP” value was determined as 1.03 log10 ratio and the “pA50, cAMP” value is 8.65 -log M.

With B4, the “Log DR against h-SCP, cAMP” value came to 0.68 log10 ratio and the “pA50, cAMP” value was 8.79 -log M.

Values taken from US20100130424A1 (Janssen / Centocor, published 2010).
